Reference: the nanobody polyreactivity screen of Harvey et al. (2022)

Assay: yeast display, Sf9 membrane polyspecificity reagent, FACS + sequencing; frameworks hold sequencing errors
Method in brief: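 Synthetic nanobody libraries on Saccharomyces cerevisiae BJ5465 were galactose-induced for 36–48 hours, stained 1 hour at 4 °C with 10% biotinylated, detergent-solubilized Sf9 membrane reagent and enriched on streptavidin microbeads. FACS then separated cells into low and high (top ~1%) gates by anti-HA (expression) and streptavidin (reagent binding) fluorescence. Genes were colony-PCR amplified, MiSeq 2 × 250 sequenced and CDR-length filtered. A clone's polyreactivity label is that of its gate of origin.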

Sequence	polyreactivity (PSR sort gate)
QVQLVESGGGLVQAGGSLRLSCAASGSISRGNVMGWYRQAPGKERELVAGITRGGRTNYADSVKGRFTISRDNAKNTVYLQMNSLKPEDTAVYYCATYTYYVPWRQRGGYPDFDYWGQGTQVTVSS	high polyreactivity
QVQLVESGGGLVQAGGSLRLSCAASGFIFVDYDMGWYSQAPGKERELVAAINWSGGSTDYADSVKGRFTISRDNAKNTVYLQMNSLKPEDTAVYYCAAEGQDGRFYWGQGTQVTVSS	low polyreactivity
QVQLVESGGGLLHAGGSLRLSCAASGRIFWFYTMGWYRQAPGKERELVAAISDSAGSTYYADSVKGRFTISRDNAKYTVYVPMNSLKPEDTAVYYCDADGWWQYDYWGHGTQVTVSS	low polyreactivity
QVQLVESGGGLVQAGGSLRLSCAASGANFGRNDMGWYRQAPGKERELVAAISWSGGRTYYADSVKGRFTISRDNAKNTVYLQMISLKPEDTAVYYCNRDYYVGRYDYWGQGTQVTVSS	high polyreactivity
QVQLLESGGGLVQAGGSLRLSCAASGRIFGSNAMGWYRQAPGKERELVAAITRGGSTNYADSVKGRFTISRDNAKNTVYLQMNSLKPEDTAVYYCAAVPFGEVDYWGQGTQVTVSS	high polyreactivity
QDQLVESGGGLVQAGGSLRLSCAASGIILPRYAMGWYRQAPGKERELVAAISRGGGTYYADSVKGRFTISRDNAKNSVYLQMNSLKPEDTAFYYCDAAYVFVGSSHYYWGQGTQVTVSS	high polyreactivity
QGQLVESGGGLVQAGGSLRLSCAASGSIFWDNVMGWSRQAPGKERELVADIDSWDGGSTYYADSVKGRFTISRDNAKNTVYLQMHSRKPEDTAVYYCNTDVLWWRGGDDFWGQGTQVTVSS	low polyreactivity
QVQLVESGGGLVQAGGSLRLSCAASGFIYSSNAMGWYRQAPGKERELVAAISSSGGRTYYAVSVKGRFTISRDNAKNTVYLQMNRLKPEDTAVYYCNAYPRSRGSANDWGQGTQVPVSS	high polyreactivity
QVQLVESGGGLVQAGGSLRLSCAASGFIFRHYAMGWYRQAPGKARELVAVINWSGSSTYYADSVKGRFTISRDNAKNTVYLQMNSLKPEDTAVYYCAVRSLRVDKYGYWGQGTQVTVSS	high polyreactivity
QVQLVESGGGLVQAGGSLRLSCAASGYTFRLYAMGWYRQAPGKERELVAAITSRGGTFYADSVKGRFTLSRDNAKNTVYLQMNSLKPEDTAVYYCAVAPNYPDFRRAIYLYDYWGQGTQLTVSS	low polyreactivity
QVQLVESGGGLVQAGGSLRLSCASSGSTFSIYAMGWYRQAPGKERELVAGISGSGGSTYYADSVKGRFTISRDNAKNTVYLQMNSLKPEDTAVYYCAKRVLWGLDYWGQGTQVTVSS	low polyreactivity
QVQLVESGGGLVQAGGSLRLSCAASGRIFAYYAMGWYRQAPGKERELVAAINSNGGSTYYADSVKGRFTISRDNAKNTVYLQLNSLKPEDTAVYYCAAGARYKMGYWGQGTQVTVSS	high polyreactivity
QVQLVESGGGLVQAGGSLRLSCAASGRIFYRYAMGWYRQAPGKERELVAAINDGGSTYYADSVKGRFTISRDNAKNTVYLQMNSLKPEDTAVYYCNVVNEHQSDFVVPFDYNHWGQGTQVSVSS	low polyreactivity
QVQLVESGGGIVQAGGSLRISCAASGSIFFGYAMGWYRPATGKERELVADITVGGGSPFYADSVKGRFTISRDNEKNTVYLQMNSLKPDDTAVYYCADDYYTQWLTRYDYWGQGTQVTLSS	low polyreactivity
QVQLVESGGGLVQAGGSLRLSCAASGFTFGHYAMGWYRQAPGIERELVAAISRSGGTTSYADSVKGRFTISRDNAKNTVYLQMNSLKPEDTAVYYCNKDYIWARYGGGRDYWGQGTQVTVSS	low polyreactivity
HVQLQESGGGLVQAGGSLRLSCGASGNISYSRSMGCYRQAPGKERELVAAIDRGAITYYADSVKGRFTISRDNAKNTVYLQIYSLKPEDTAVYYCAAVYHDRWDHRYWGQGTQVTVCS	high polyreactivity
QVQVVESGGGLVQAGGSLRLSCAASGGIFYGYAMGWYRQAPGKERELVAAITSNGGTTYYADSVKGRFTISRDNAKNTVYLQMNSLKPEDTAVYYCDAYFKDSGSYYYWGQGTQVNVSS	low polyreactivity
QVQLVESGGGLVQAGGSLRLSCAASGFTFRYNAMGWYRQAPGKERELVATISWRGTSTYYADSVKGRFTISRDNAKNTVYLQMNSLKPEDTAVYYCAALGTVGYDYWGQGTQVTVSS	low polyreactivity
QVQLVESGGGSVQAGGSLRLSCAASGRTFYGYAMGWYRQAPGKERELGASISRDGSTNYADSVKGRFTISRDNAKNTVYLQMTSLKPEDTAVYYCAADIWYYRYPIYYYSYDYWGQGTQVNVSS	low polyreactivity
QVQLVESGGGLVQAGGSLRLSCAASGRTFWYYGMGWYRQAPGKERELVAAIRGSGGSTYYADSVKGRFTISRDNAKNTVYLQMNSLKPEDTAVYYCAKRSYIRPKYTYEYWGQGTQVTVSS	high polyreactivity
QVQLVESGGGLVQAGGSLRLSCAASGRIFADNAMGWYRQAPGKERELVADITYSGGSTYYADSVKGRFTISRDNAKNTVYLQMNSLKPEDTAVYSCAKQGVDYWGQGTQVTVSS	low polyreactivity
QVQLVESGGGLVQAGGSLRLSCAASGNAMGWYRQAPGKERELVAAITRRVGSTYYADSVKGRFTISRDNAKNTVYLQMNSLKPEDTAVYYCAADNPSYNLWYGYWGQGTQVTVSS	low polyreactivity

Sequence	polyreactivity (PSR sort gate)
QVQLVESGGGLFHAGGSLRLSCPDSGSTFYRYTMGCYRQAPGKERELVAAITSGGGTDYADSVKARFTISRDNAKNTVYLQLISLKPEDTAVYFCADFLSWRDYYLYWRGSWREDYWGQGTQVTVSS	low polyreactivity
QVQLVESGGGLVQAGGSLRLSCAASGRIFHRYAMGWYRQAPGKERELVASISRGDSTNYADSVKGRFTISRDNAKNTVYLQMNSLKPEDTAVYYCAARSFTRYRYYYWGQGTQVTVSS	high polyreactivity
QVQLVESGGGLVQAGGSLRLICAASGIIFAVYARGCYRQAPGKERELVAAISTSGGRTDYADSVKGRFTISRDNAKNTVYLQMNSLKPEDTAVYYCAAEYVGKGTPDDYDYWGQGTQVTVSS	high polyreactivity
QVQRVETGRGIVQAGGILRLSCAASGRTFHLYAMGWYRQQPGKERELVADIDGDGGSTYYSDSVKGRFTISRDNAKNTVYLQMNSLKPEDTAVYDCAASRFDYWGQGTQVTVSS	low polyreactivity
QVQLVESGGGLVQAGGSLRLSCAASGRIFTPYPMGWYRQAPGKERELVAVIRDGSTYYADSVKGRFTISRDNAKNSVYLQMNSLKPEDSAVYYCRYDIWVWWSGAYDYWGQGTQVTVSS	low polyreactivity
QVQLVESGGGLVQAGASLRLSCAASGSIFAGYAMGWYRQAPWKERELVAAISWSGGGTYYADSVKGRFTISRDNEKNTVYLQMNSLKPEDTAVYYCNAYGYRHRGNGYWGQGTQVTVSS	high polyreactivity
QVQLVESGGGLVQAGGSLRLSCAASGSTFSYNAMGWYRQAPGKERELVAAIDRSVSTNYADSVKGRFTISRDNAKNTVYLQMNSLKPEDTAVYYCNARHPTDDIVIYDYWGQGTQVTVSS	low polyreactivity
QVQLVESGGGLVQAGGSLRLSCAASGSIFGGYAMGWYRQPPGKERELVAAITWGGGSTYYADSVKGRFTISRDNAKNTVYLQMNSLKPEDTAVYYCAADRSWYDWEDDYWGQGTQVTVSS	low polyreactivity
QVQLVESGGGLVQAGGSLRLSCAASGSTFRFYAMGWYRQAPGKERELLAAINGSGGSTYYADSVKGRFTISRDKAKSTVNLQMNSLKPEDTAVYYSAVLYRYGYDYWGQGTQVTVSS	low polyreactivity
QVQLVESGGGLVQAGGSLRLSCAASGFTFTRYAMGWYRQAPGKERELVAVITSSGTSTYYADSVKGRFTISRDNAKNTVYLQMNSLKPEDTAVYYCAARTHRRDFYYWGQGTQVTVSS	high polyreactivity
QVQLVDSGGGLVQAGGSLRLSCAASGRTSRRYAMGWYRQEPGKERELVAAIRGSGGSTYYADSVKGRFTISRDNAKNTVYLQMNSLKPEDTAVYYCAARSPRASGNSDYWGQGTQVTVSS	high polyreactivity
QVQLVESGGGLVQAGGSLRLSCAASGSIFAYAMGWYRQAHGKERELVAAISGGSTYYADSVKGRFTISRENAKNTVYLQMNSLKPEETAVYYCAADLDDERYYWGQGTQVTVSS	low polyreactivity
QVQLVESGGGLVQAGGSLRLSCAAYGLTFPWNAMGWYRQSPGKERELVAAITSRGGNTYYADSVKGRFTISRDNAKNTVYLQMNSLKPEDTAVYYCAARQYWSYRRYDYWGQGTQVTVSS	high polyreactivity
QVQLVESGGGLVQAGGSLRLSCAASGSIFQYYGMGWYRQAPGKERELVAAISRGGSTNYADSVKGRFTISRDNAKNTVYLQMNSLKPEDTAVYYCNARTYRKAYSGYNYWGQGTQVTVSS	high polyreactivity
QVQLVESGGGLVQAGGSLRLSCAASGFTFWYYAMGWYRQAPGKERELVAAISWSGGSTSYADSVKGRFTISRDNAKNTVYLQMNSLKREDTAVYYCAASDYYYYSWRPGDTWYEYWGQGTQVSVSS	high polyreactivity
QVQLVESGGGLVQAGGSLRLSCAASGFTFRTYAMGWYRQAPGKVRELVAAITVSGGTYYADSVKGRFTISRDNAKNTVYLQMNSLKPEDTAVYYCTAKRFRTGLDYWGQGTQVTVSS	low polyreactivity
QVQLVESGGGLVQAGGSLRLSCAASGRTFRIYAEGWYRQPPGKERELVARITWSGGRTYYADSVKGRFTISRDNAQNTVYLQMNSLKPEDTAVYYCNAGGSWEFDYWGQGTQVTVSS	low polyreactivity
QVQLVESGGGLVQAGGSLRLSCAASGRTFVLNVMGWYRQAPGKERELVADITSGDNTYYADSVKGRFTISRDNAKNTVYLQRNSLKPEDTAVYYCAADGWFYFGYDYWGQGTQVTVSS	low polyreactivity
QVQLVESGGGLVQAGGSLRLSCAASGGTFRPNAMGWYRQAPGKERELVAAITRSGGSTYYADSVKGRFTISRDNAKNTVYLQMNSLKPEDTAVYYCARDLREWGQGTQVTVSS	low polyreactivity
QVQLVESGGGLVQAGGSLRLSCAASGSILFRYGMGWYRQAPGKERELVAAINSGGSTYADSVKGRFTISRDNAKNTVYLQMNSLKPEDTAVYYCAKVAWQAHGGPGEFDYWGQGTQVTVSS	low polyreactivity
QVQLVESGGGLVQAGGSLRLSCAASGRTFYPYAMGWYRQAPGKERELVAAIRRSDGSTYYADSVKGRFTISRDNAKNTVYLQMNSLKPEDTAVYYFAAGQGSRNQYYYWGHGTQVTVSS	high polyreactivity
